B1: Mothers against decapentaplegic homolog 4 (Homo sapiens), Q13485 (parent)
chain: MDNMSITNTPTSNDACLSIVHSLMCHRQGGESETFAKRAIESLVKKLKEKKDELDSLITAITTNGAHPSKCVTIQRTLDGRLQVAGRKGFPHVIYARLWRWPDLHKNELKHVKYCQYAFDLKCDSVCVNPYHYERVVSPGIDLSGLTLQSNAPSSMMVKDEYVHDFEGQPSLSTEGHSIQTIQHPPSNRASTETYSTPALLAPSESNATSTANFPNIPVASTSQPASILGGSHSEGLLQIASGPQPGQQQNGFTGQPATYHHNSTTTWTGSRTAPYTPNLPHHQNGHLQHHPPMPPHPGHYWPVHNELAFQPPISNHPAPEYWCSIAYFEMDVQVGETFKVPSSCPIVTVDGYVDPSGGDRFCLGQLSNVHRTEAIERARLHIGKGVQLECKGEGDVWVRCLSDHAVFVQSYYLDREAGRAPGDAVHKIYPSAYIKVFDLRQCHRQMQQQAATAQAAAAAQAAAVAGNIPGPGSVGGIAPAISLSAAAGIGVDDLRRLCILRMSFVKGWGPDYPRQSIKETPCWIEIHLHRALQLLDEVLHTMPIADPQPLD
partner: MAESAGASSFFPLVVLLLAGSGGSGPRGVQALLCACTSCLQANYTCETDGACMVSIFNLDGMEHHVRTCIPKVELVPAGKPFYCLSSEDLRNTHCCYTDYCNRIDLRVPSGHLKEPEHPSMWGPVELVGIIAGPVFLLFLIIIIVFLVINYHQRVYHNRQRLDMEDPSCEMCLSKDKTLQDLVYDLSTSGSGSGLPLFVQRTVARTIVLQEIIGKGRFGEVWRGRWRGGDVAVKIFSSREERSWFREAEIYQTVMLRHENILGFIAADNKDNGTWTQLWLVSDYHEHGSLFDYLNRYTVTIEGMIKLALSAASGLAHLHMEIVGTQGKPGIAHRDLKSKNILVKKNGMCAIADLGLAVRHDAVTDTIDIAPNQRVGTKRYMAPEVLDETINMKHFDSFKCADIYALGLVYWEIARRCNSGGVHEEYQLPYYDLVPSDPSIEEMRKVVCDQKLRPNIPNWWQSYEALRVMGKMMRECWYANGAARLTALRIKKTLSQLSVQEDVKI
B2: Mothers against decapentaplegic homolog 4 (Homo sapiens), Q13485 (parent)
chain: B1 chain
partner: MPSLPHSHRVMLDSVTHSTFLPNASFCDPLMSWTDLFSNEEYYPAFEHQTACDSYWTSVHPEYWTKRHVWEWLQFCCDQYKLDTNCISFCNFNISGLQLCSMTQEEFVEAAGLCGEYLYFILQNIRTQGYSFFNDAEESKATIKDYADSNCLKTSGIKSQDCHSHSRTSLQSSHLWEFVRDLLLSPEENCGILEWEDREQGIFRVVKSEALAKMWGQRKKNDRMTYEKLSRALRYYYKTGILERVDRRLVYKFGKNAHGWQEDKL
B3: Mothers against decapentaplegic homolog 4 (Homo sapiens), Q13485 (parent)
chain: B1 chain
partner: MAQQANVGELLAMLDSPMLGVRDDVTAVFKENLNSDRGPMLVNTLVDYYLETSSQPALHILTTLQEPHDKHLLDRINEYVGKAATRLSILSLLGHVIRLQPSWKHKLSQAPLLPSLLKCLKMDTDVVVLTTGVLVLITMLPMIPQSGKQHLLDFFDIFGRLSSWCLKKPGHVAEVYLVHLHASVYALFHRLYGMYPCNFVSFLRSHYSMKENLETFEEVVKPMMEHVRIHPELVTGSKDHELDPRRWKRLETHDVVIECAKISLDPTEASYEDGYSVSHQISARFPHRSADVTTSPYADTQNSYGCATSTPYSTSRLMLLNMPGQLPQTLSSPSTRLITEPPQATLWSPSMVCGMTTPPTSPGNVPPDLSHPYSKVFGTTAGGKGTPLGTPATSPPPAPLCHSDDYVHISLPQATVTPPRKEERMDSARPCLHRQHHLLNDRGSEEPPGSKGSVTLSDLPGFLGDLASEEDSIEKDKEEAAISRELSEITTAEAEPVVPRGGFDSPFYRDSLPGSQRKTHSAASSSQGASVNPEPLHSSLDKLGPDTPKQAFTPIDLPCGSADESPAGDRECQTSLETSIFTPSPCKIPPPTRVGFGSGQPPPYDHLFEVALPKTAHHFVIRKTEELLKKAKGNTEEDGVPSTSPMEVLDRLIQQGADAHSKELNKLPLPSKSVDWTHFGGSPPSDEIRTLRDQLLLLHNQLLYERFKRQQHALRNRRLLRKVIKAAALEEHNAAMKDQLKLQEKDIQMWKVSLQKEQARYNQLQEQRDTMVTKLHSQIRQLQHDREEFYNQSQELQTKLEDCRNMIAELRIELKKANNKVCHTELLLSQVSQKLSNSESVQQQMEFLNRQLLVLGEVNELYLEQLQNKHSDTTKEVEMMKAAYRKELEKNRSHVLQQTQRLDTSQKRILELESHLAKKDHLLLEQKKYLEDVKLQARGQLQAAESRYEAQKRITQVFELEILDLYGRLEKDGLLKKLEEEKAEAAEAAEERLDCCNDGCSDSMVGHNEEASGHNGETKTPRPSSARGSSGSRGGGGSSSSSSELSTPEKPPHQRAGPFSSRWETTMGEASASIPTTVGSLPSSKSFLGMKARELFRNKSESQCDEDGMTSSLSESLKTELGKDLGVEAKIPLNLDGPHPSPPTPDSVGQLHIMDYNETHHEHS
B4: Mothers against decapentaplegic homolog 4 (Homo sapiens), Q13485 (parent)
chain: B1 chain
partner: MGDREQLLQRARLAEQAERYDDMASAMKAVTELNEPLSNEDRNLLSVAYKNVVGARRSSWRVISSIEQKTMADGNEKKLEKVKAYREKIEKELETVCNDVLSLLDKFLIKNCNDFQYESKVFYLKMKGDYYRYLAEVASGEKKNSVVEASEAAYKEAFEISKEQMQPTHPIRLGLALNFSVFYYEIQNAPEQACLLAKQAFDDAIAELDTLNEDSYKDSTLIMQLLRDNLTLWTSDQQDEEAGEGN

The source of these data is IntAct's records for PubMed 35512704.

The first test covers variants of B1. As to conditions: with acv1b_human ACVR1B.
Regarding R361C, the “effect of a mutation on the interaction” value is reported as “with no effect”.

In another test the parent is B1. The conditions noted are these: with acv1b_human ACVR1B. This is another data set of the same source.
For G386D, the “effect of a mutation on the interaction” value is reported as “with no effect”.

The variants in a further test derive from B1. As to conditions: with acv1b_human ACVR1B. The source holds these as a separate data set.
Regarding G386D, the “effect of a mutation on the interaction” value is listed as “increasing interaction strength”.

The variants in another test derive from B2. The conditions noted are these: with elf5_human ELF5, Q9UKW6.
G386D: the “effect of a mutation on the interaction” value is given as “with no effect”.

Variants of B2 are the subject of the next test. As to conditions: with elf5_human ELF5, Q9UKW6. The source holds these as a separate data set.
On to R361C, for which the “effect of a mutation on the interaction” value is “with no effect”.

Variants of B2 are the subject of a further test. The conditions noted are these: with elf5_human ELF5, Q9UKW6. This is another data set of the same source.
For the variant R361H, the “effect of a mutation on the interaction” value is recorded as “with no effect”.

The variants in the next test derive from B3. The conditions noted are these: with tsc1_human TSC1, Q92574.
With G386D, the “effect of a mutation on the interaction” value is “with no effect”.

In a further test the parent is B3. The conditions noted are these: with tsc1_human TSC1, Q92574. This is another data set of the same source.
As to R361H, the “effect of a mutation on the interaction” value is reported as “with no effect”.

Variants of B3 are the subject of a further test. As to conditions: with tsc1_human TSC1, Q92574. This is another data set of the same source.
For R361C, the “effect of a mutation on the interaction” value is “with no effect”.

In another test the parent is B3. As to conditions: with tsc1_human TSC1, Q92574. The source holds these as a separate data set.
Turning to D351H, the “effect of a mutation on the interaction” value is reported as “with no effect”.

The next test covers variants of B4. The conditions noted are these: with 1433f_human YWHAH.
R361H: the “effect of a mutation on the interaction” value was “with no effect”.

Variants of B4 are the subject of a further test. The conditions noted are these: with 1433f_human YWHAH. This is another data set of the same source.
R361C: the “effect of a mutation on the interaction” value is listed as “with no effect”.
